One sequence from publication PMC10715180 can be followed below.

Holding throughout (experiment): EMSA
Holding throughout (settings): […] (binding temperature not stated)
In general terms: Mobility shift assays separate free from complexed probe on a gel.

Series [1] has as its target PhoP (PhoPmas) WT, unphosphorylated (Mycobacterium abscessus subsp. massiliense CIP108297 (Mmas; subspecies name implied?)) (UniProt B1MHU9).
Series [2] has as its target PhoP D71N D71N (Mycobacterium abscessus subsp. massiliense CIP108297 (Mmas; subspecies name implied?)) (UniProt B1MHU9).
For series [3], the target named is PhoP K224A K224A (Mycobacterium abscessus subsp. massiliense CIP108297 (Mmas; subspecies name implied?)) (UniProt B1MHU9).

As to “AGGTAATCTTCCCCCCAAAATTTACGATGCGCTGGATCTTCACTGTGAGCTTCCTGTGAGTTACTCACAGCAGATTGTCAGCCAACCGCGCCAGGTCGCCCTACAGTTGAGCC (double strand) [phoP promoter probe WT]”, the binding entry in series [1] is reported as “binds”; in series [2], “binds more weakly”; in series [3], “no binding”.
